Results: publication PMC8271855

Biological target: Recombinant green fluorescent protein (CopGFP, amplified from the pTurboGFP plasmid)
Test: SEC

stoichiometry N: 2
Substance: Recombinant green fluorescent protein (CopGFP, amplified from the pTurboGFP plasmid) (natural protein)
